From paper PMC3441633 (PLoS ONE, 2012) come the findings set out here.

In this experiment the target is T1, Ras (aa 1-166), bacterially expressed and purified (H-Ras) (UniProt P01112 1-166).
T1 construct: H-Ras aa 1-166 (all Ras constructs were the H-Ras isoform); Used loaded with GDP, loaded with GTPγS, or nucleotide-free (incubated with EDTA without added nucleotide); the nucleotide state is told by the assay; also called Ras 1-166; Ras-GDP; source: E. coli BL21 (pQlink Ras 1-166), purified on nickel beads, His tag cleaved with TEV protease
Nature of the experiment: pull-down; nucleotide-free Ras: 250 nM Ras with 850 nM GST protein on glutathione beads in Loading Buffer (15 mM EDTA, 5 mM MgCl2), 30 min at 30°C, no added nucleotide. Particulars: both partners purified.

B1: GST-PI3KC2β-RBD (aa 368-463) (domain or fragment, UniProt O00750 368-463, looked up)
chain: SPEHLGDEVNLKVTVLCDRLQEALTFTCNCSSTVDLLIYQTLCYTHDDLRNVDVGDFVLKPCGLEEFLQNKHALGSHEYIQYCRKFDIDIRLQLME
notes: also called RBD of PI3KC2β; source: E. coli BL21 (DE3), purified on Glutathione Sepharose beads
With B1, the binding result is recorded as “binds”.
